Data on three molecules can be found in US20220009996A1 (NORTHWESTERN UNIVERSITY, published 2022).

As a reminder, the Kd is the equilibrium constant for the complex coming apart.

The target in assay [1] is T1, Recombinant Human VCAM-1/CD106 Fc chimera protein (R&D Systems) (human, UniProt P19320 25-698).
T1 construct: Bought from R&D Systems; also called VCAM-1 protein; not shown: Fc part (and any linker or His tag) of the bought chimera is not described
T1 sequence (looked up): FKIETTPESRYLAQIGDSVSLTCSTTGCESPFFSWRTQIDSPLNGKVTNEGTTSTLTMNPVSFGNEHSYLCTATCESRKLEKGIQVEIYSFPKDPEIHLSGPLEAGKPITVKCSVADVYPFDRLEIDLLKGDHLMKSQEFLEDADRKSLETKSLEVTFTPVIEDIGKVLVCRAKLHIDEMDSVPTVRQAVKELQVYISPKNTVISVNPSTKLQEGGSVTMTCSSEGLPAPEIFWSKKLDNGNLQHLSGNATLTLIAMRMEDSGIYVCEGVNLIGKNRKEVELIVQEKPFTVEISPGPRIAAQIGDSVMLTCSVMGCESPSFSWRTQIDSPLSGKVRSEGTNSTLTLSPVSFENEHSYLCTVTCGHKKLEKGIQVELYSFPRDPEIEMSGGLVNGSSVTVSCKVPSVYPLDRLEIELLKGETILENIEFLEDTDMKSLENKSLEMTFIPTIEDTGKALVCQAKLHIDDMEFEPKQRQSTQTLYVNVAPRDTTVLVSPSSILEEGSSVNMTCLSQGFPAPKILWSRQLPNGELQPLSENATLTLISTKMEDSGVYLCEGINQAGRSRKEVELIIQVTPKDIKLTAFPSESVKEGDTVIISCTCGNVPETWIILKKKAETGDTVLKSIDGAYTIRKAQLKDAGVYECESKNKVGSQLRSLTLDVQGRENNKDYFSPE
In words: BLI (BLItz), VCAM-1 Fc chimera immobilized on Anti-Penta-HIS biosensor, serial dilutions of PA nanofibers.

For assay [2], the target named is T1, Recombinant Human VCAM-1/CD106 Fc …. The experiment in a line: bio-layer interferometry (BLItz): VCAM-1 Fc chimera immobilised on an Anti-Penta-HIS biosensor, PA nanofibers in DPBS as analyte, 300 s association and 300 s dissociation. In general terms: BLI is a label-free optical method that tracks binding on a fibre tip over time.

B1: VCAM-1 binding PA (C16V3A3E3GSGVHPKQH) nanofibers (peptide)
peptide: VVVAAAEEEGSGVHPKQH
HELM: PEPTIDE1{[CCCCCCCCCCCCCCCC(=O)[*:2]].V.V.V.A.A.A.E.E.E.G.S.G.V.H.P.K.Q.H.[am]}$$$$V2.0
SMILES: CCCCCCCCCCCCCCCC(=O)N[C@H](C(=O)N[C@H](C(=O)N[C@H](C(=O)N[C@@H](C)C(=O)N[C@@H](C)C(=O)N[C@@H](C)C(=O)N[C@@H](CCC(=O)O)C(=O)N[C@@H](CCC(=O)O)C(=O)N[C@@H](CCC(=O)O)C(=O)NCC(=O)N[C@@H](CO)C(=O)NCC(=O)N[C@H](C(=O)N[C@@H](Cc1c[nH]cn1)C(=O)N1CCC[C@H]1C(=O)N[C@@H](CCCCN)C(=O)N[C@@H](CCC(N)=O)C(=O)N[C@@H](Cc1c[nH]cn1)C(N)=O)C(C)C)C(C)C)C(C)C)C(C)C
notes: Peptide amphiphile, self-assembled into supramolecular nanofibers after annealing; tested as nanofibers, so the number of copies in one assembly is not defined; In the microfluidic assay it stood as a coating on lymphocytes; also called VCAMb PA; VCAM-1 targeting PA
In the case of B1, the Kd in assay [1] turned out to be 280 nM.

B2: VCAMb-scr PA (C16V3A3E3GSGQHPHVK) nanofibers (peptide)
peptide: VVVAAAEEEGSGQHPHVK
HELM: PEPTIDE1{[CCCCCCCCCCCCCCCC(=O)[*:2]].V.V.V.A.A.A.E.E.E.G.S.G.Q.H.P.H.V.K.[am]}$$$$V2.0
SMILES: CCCCCCCCCCCCCCCC(=O)N[C@H](C(=O)N[C@H](C(=O)N[C@H](C(=O)N[C@@H](C)C(=O)N[C@@H](C)C(=O)N[C@@H](C)C(=O)N[C@@H](CCC(=O)O)C(=O)N[C@@H](CCC(=O)O)C(=O)N[C@@H](CCC(=O)O)C(=O)NCC(=O)N[C@@H](CO)C(=O)NCC(=O)N[C@@H](CCC(N)=O)C(=O)N[C@@H](Cc1c[nH]cn1)C(=O)N1CCC[C@H]1C(=O)N[C@@H](Cc1c[nH]cn1)C(=O)N[C@H](C(=O)N[C@@H](CCCCN)C(N)=O)C(C)C)C(C)C)C(C)C)C(C)C
notes: formed relatively short, closely packed fibers; also called scrambled control PA
Take B2: the binding result in assay [2] is reported as “no binding (tested: 100 µM)”.

B3: backbone PA (C16V3A3E3) nanofibers (peptide)
peptide: VVVAAAEEE
HELM: PEPTIDE1{[CCCCCCCCCCCCCCCC(=O)[*:2]].V.V.V.A.A.A.E.E.E.[am]}$$$$V2.0
SMILES: CCCCCCCCCCCCCCCC(=O)N[C@H](C(=O)N[C@H](C(=O)N[C@H](C(=O)N[C@@H](C)C(=O)N[C@@H](C)C(=O)N[C@@H](C)C(=O)N[C@@H](CCC(=O)O)C(=O)N[C@@H](CCC(=O)O)C(=O)N[C@@H](CCC(=O)O)C(N)=O)C(C)C)C(C)C)C(C)C
notes: Peptide amphiphile without targeting moiety, self-assembled into nanofibers; also called filler PA; non-bioactive backbone PA
Take B3: the binding result in assay [2] was “no binding (tested: 100 µM)”.
